Article PMC3947485

Biological target: TRAP1 from zebrafish (D. rerio), full-length mature protein (D. rerio)
Assay: crystal structure

stoichiometry N: 2
Substance: TRAP1 from zebrafish (D. rerio), full-length mature protein (natural protein)
